# Measured values taken from patent US20200199241A1 (Chugai, published 2020).
# Target: T1, human FcRn (soluble human FcRn complexed with β2-microglobulin) (human, UniProt P61769 21-119, limits assumed)
# T1 construct: also called hFcRn
# Assay: SPR, pH 7.0;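 also: antibodies captured on a Protein L sensor chip with human FcRn injected as analyte, KD calculated from fitted association and dissociation rate constants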
row,Binder,Kd
1,"IgG1-F182 (antibody, EU numbering; copies: 2 + 2) heavy: QVQLQESGPGLVKPSETLSLTCAVSGHSISHDHAWSWVRQPPGEGLEWIGFISYSGITNYNPSLQGRVTISRDNSKNTLYLQMNSLRAEDTAVYYCARSLARTTAMDYWGEGTLVTVSSASTKGPSVFPLAPSSKSTSGGTAALGCLVKDYFPEPVTVSWNSGALTSGVHTFPAVLQSSGLYSLSSVVTVPSSSLGTQTYICNVNHKPSNTKVDKKVEPKSCDKTHTCPPCPAPELLGGPSVFLFPPKPKDTLMISRTAEVTCVVVDVSHEDPEVKFNWYVDGVEVHNAKTKPREEQYNSTYRVVSVLTVLHQDWLNGKEYKCKVSNKALPAPIEKTISKAKGQPREPQVYTLPPSRDELTKNQVSLTCLVKGFYPSDIAVEWESNGQPENNYKTTPPVLDSDGSFFLYSKLTVDKSRWQQGNVFSCSVLHEALHWHYTQKSLSLSP light: not shown",0.066 µM
2,"IgG1-F189 (antibody, EU numbering; copies: 2 + 2) heavy: QVQLQESGPGLVKPSETLSLTCAVSGHSISHDHAWSWVRQPPGEGLEWIGFISYSGITNYNPSLQGRVTISRDNSKNTLYLQMNSLRAEDTAVYYCARSLARTTAMDYWGEGTLVTVSSASTKGPSVFPLAPSSKSTSGGTAALGCLVKDYFPEPVTVSWNSGALTSGVHTFPAVLQSSGLYSLSSVVTVPSSSLGTQTYICNVNHKPSNTKVDKKVEPKSCDKTHTCPPCPAPELLGGPSVFLFPPKPKDTLYISRTPEVTCVVVDVSHEDPEVKFNWYVDGVEVHNAKTKPREEQYNSTYRVVSVLAVLHQDWLNGKEYKCKVSNKALPAPIEKTISKAKGQPREPQVYTLPPSRDELTKNQVSLTCLVKGFYPSDIAVEWESNGQPENNYKTTPPVLDSDGSFFLYSKLTVDKSRWQQGNVFSCSVMHEALHYHYTQKSLSLSP light: not shown",0.19 µM
3,"IgG1-F183 (antibody, EU numbering; copies: 2 + 2) heavy: QVQLQESGPGLVKPSETLSLTCAVSGHSISHDHAWSWVRQPPGEGLEWIGFISYSGITNYNPSLQGRVTISRDNSKNTLYLQMNSLRAEDTAVYYCARSLARTTAMDYWGEGTLVTVSSASTKGPSVFPLAPSSKSTSGGTAALGCLVKDYFPEPVTVSWNSGALTSGVHTFPAVLQSSGLYSLSSVVTVPSSSLGTQTYICNVNHKPSNTKVDKKVEPKSCDKTHTCPPCPAPELLGGPSVFLFPPKPKDTLMISRTTEVTCVVVDVSHEDPEVKFNWYVDGVEVHNAKTKPREEQYNSTYRVVSVLTVLHQDWLNGKEYKCKVSNKALPAPIEKTISKAKGQPREPQVYTLPPSRDELTKNQVSLTCLVKGFYPSDIAVEWESNGQPENNYKTTPPVLDSDGSFFLYSKLTVDKSRWQQGNVFSCSVLHEALHWHYTQKSLSLSP light: not shown",0.22 µM
4,"IgG1-F190 (antibody, EU numbering; copies: 2 + 2) heavy: QVQLQESGPGLVKPSETLSLTCAVSGHSISHDHAWSWVRQPPGEGLEWIGFISYSGITNYNPSLQGRVTISRDNSKNTLYLQMNSLRAEDTAVYYCARSLARTTAMDYWGEGTLVTVSSASTKGPSVFPLAPSSKSTSGGTAALGCLVKDYFPEPVTVSWNSGALTSGVHTFPAVLQSSGLYSLSSVVTVPSSSLGTQTYICNVNHKPSNTKVDKKVEPKSCDKTHTCPPCPAPELLGGPSVFLFPPKPKDTLYISRTPEVTCVVVDVSHEDPEVKFNWYVDGVEVHNAKTKPREEQYNSTYRVVSVLQVLHQDWLNGKEYKCKVSNKALPAPIEKTISKAKGQPREPQVYTLPPSRDELTKNQVSLTCLVKGFYPSDIAVEWESNGQPENNYKTTPPVLDSDGSFFLYSKLTVDKSRWQQGNVFSCSVMHEALHYHYTQKSLSLSP light: not shown",0.11 µM
5,"IgG1-F184 (antibody, EU numbering; copies: 2 + 2) heavy: QVQLQESGPGLVKPSETLSLTCAVSGHSISHDHAWSWVRQPPGEGLEWIGFISYSGITNYNPSLQGRVTISRDNSKNTLYLQMNSLRAEDTAVYYCARSLARTTAMDYWGEGTLVTVSSASTKGPSVFPLAPSSKSTSGGTAALGCLVKDYFPEPVTVSWNSGALTSGVHTFPAVLQSSGLYSLSSVVTVPSSSLGTQTYICNVNHKPSNTKVDKKVEPKSCDKTHTCPPCPAPELLGGPSVFLFPPKPKDTLMISRTVEVTCVVVDVSHEDPEVKFNWYVDGVEVHNAKTKPREEQYNSTYRVVSVLTVLHQDWLNGKEYKCKVSNKALPAPIEKTISKAKGQPREPQVYTLPPSRDELTKNQVSLTCLVKGFYPSDIAVEWESNGQPENNYKTTPPVLDSDGSFFLYSKLTVDKSRWQQGNVFSCSVLHEALHWHYTQKSLSLSP light: not shown",0.27 µM
6,"IgG1-F198 (antibody, EU numbering; copies: 2 + 2) heavy: QVQLQESGPGLVKPSETLSLTCAVSGHSISHDHAWSWVRQPPGEGLEWIGFISYSGITNYNPSLQGRVTISRDNSKNTLYLQMNSLRAEDTAVYYCARSLARTTAMDYWGEGTLVTVSSASTKGPSVFPLAPSSKSTSGGTAALGCLVKDYFPEPVTVSWNSGALTSGVHTFPAVLQSSGLYSLSSVVTVPSSSLGTQTYICNVNHKPSNTKVDKKVEPKSCDKTHTCPPCPAPELLGGPSVFLFPPKPKDTLMISRTVEVTCVVVDVSHEDPEVKFNWYVDGVEVHNAKTKPREEQYNSTYRVVSVLQVLHQDWLNGKEYKCKVSNKALPAPIEKTISKAKGQPREPQVYTLPPSRDELTKNQVSLTCLVKGFYPSDIAVEWESNGQPENNYKTTPPVLDSDGSFFLYSKLTVDKSRWQQGNVFSCSVLHEALHYHYTQKSLSLSP light: not shown",0.048 µM

# More lines, in order of falling Kd, values ahead:
row,Kd,Binder
1,0.21 µM,"IgG1-F201 (antibody, EU numbering; copies: 2 + 2) heavy: QVQLQESGPGLVKPSETLSLTCAVSGHSISHDHAWSWVRQPPGEGLEWIGFISYSGITNYNPSLQGRVTISRDNSKNTLYLQMNSLRAEDTAVYYCARSLARTTAMDYWGEGTLVTVSSASTKGPSVFPLAPSSKSTSGGTAALGCLVKDYFPEPVTVSWNSGALTSGVHTFPAVLQSSGLYSLSSVVTVPSSSLGTQTYICNVNHKPSNTKVDKKVEPKSCDKTHTCPPCPAPELLGGPSVFLFPPKPKDTLYISRTPEVTCVVVDVSHEDPEVKFNWYVDGVEVHNAKTKPREEQYNSTYRVVSVLDVLHQDWLNGKEYKCKVSNKALPAPIEKTISKAKGQPREPQVYTLPPSRDELTKNQVSLTCLVKGFYPSDIAVEWESNGQPENNYKTTPPVLDSDGSFFLYSKLTVDKSRWQQGNVFSCSVMHEALHYHYTQKSLSLSP light: not shown"
2,0.16 µM,"IgG1-F191 (antibody, EU numbering; copies: 2 + 2) heavy: QVQLQESGPGLVKPSETLSLTCAVSGHSISHDHAWSWVRQPPGEGLEWIGFISYSGITNYNPSLQGRVTISRDNSKNTLYLQMNSLRAEDTAVYYCARSLARTTAMDYWGEGTLVTVSSASTKGPSVFPLAPSSKSTSGGTAALGCLVKDYFPEPVTVSWNSGALTSGVHTFPAVLQSSGLYSLSSVVTVPSSSLGTQTYICNVNHKPSNTKVDKKVEPKSCDKTHTCPPCPAPELLGGPSVFLFPPKPKDTLMISRTLEVTCVVVDVSHEDPEVKFNWYVDGVEVHNAKTKPREEQYNSTYRVVSVLAVLHQDWLNGKEYKCKVSNKALPAPIEKTISKAKGQPREPQVYTLPPSRDELTKNQVSLTCLVKGFYPSDIAVEWESNGQPENNYKTTPPVLDSDGSFFLYSKLTVDKSRWQQGNVFSCSVLHEALHYHYTQKSLSLSP light: not shown"
3,0.12 µM,"IgG1-F194 (antibody, EU numbering; copies: 2 + 2) heavy: QVQLQESGPGLVKPSETLSLTCAVSGHSISHDHAWSWVRQPPGEGLEWIGFISYSGITNYNPSLQGRVTISRDNSKNTLYLQMNSLRAEDTAVYYCARSLARTTAMDYWGEGTLVTVSSASTKGPSVFPLAPSSKSTSGGTAALGCLVKDYFPEPVTVSWNSGALTSGVHTFPAVLQSSGLYSLSSVVTVPSSSLGTQTYICNVNHKPSNTKVDKKVEPKSCDKTHTCPPCPAPELLGGPSVFLFPPKPKDTLMISRTVEVTCVVVDVSHEDPEVKFNWYVDGVEVHNAKTKPREEQYNSTYRVVSVLAVLHQDWLNGKEYKCKVSNKALPAPIEKTISKAKGQPREPQVYTLPPSRDELTKNQVSLTCLVKGFYPSDIAVEWESNGQPENNYKTTPPVLDSDGSFFLYSKLTVDKSRWQQGNVFSCSVLHEALHYHYTQKSLSLSP light: not shown"
4,0.11 µM,"IgG1-F192 (antibody, EU numbering; copies: 2 + 2) heavy: QVQLQESGPGLVKPSETLSLTCAVSGHSISHDHAWSWVRQPPGEGLEWIGFISYSGITNYNPSLQGRVTISRDNSKNTLYLQMNSLRAEDTAVYYCARSLARTTAMDYWGEGTLVTVSSASTKGPSVFPLAPSSKSTSGGTAALGCLVKDYFPEPVTVSWNSGALTSGVHTFPAVLQSSGLYSLSSVVTVPSSSLGTQTYICNVNHKPSNTKVDKKVEPKSCDKTHTCPPCPAPELLGGPSVFLFPPKPKDTLMISRTAEVTCVVVDVSHEDPEVKFNWYVDGVEVHNAKTKPREEQYNSTYRVVSVLAVLHQDWLNGKEYKCKVSNKALPAPIEKTISKAKGQPREPQVYTLPPSRDELTKNQVSLTCLVKGFYPSDIAVEWESNGQPENNYKTTPPVLDSDGSFFLYSKLTVDKSRWQQGNVFSCSVLHEALHYHYTQKSLSLSP light: not shown"
5,0.085 µM,"IgG1-F193 (antibody, EU numbering; copies: 2 + 2) heavy: QVQLQESGPGLVKPSETLSLTCAVSGHSISHDHAWSWVRQPPGEGLEWIGFISYSGITNYNPSLQGRVTISRDNSKNTLYLQMNSLRAEDTAVYYCARSLARTTAMDYWGEGTLVTVSSASTKGPSVFPLAPSSKSTSGGTAALGCLVKDYFPEPVTVSWNSGALTSGVHTFPAVLQSSGLYSLSSVVTVPSSSLGTQTYICNVNHKPSNTKVDKKVEPKSCDKTHTCPPCPAPELLGGPSVFLFPPKPKDTLMISRTTEVTCVVVDVSHEDPEVKFNWYVDGVEVHNAKTKPREEQYNSTYRVVSVLAVLHQDWLNGKEYKCKVSNKALPAPIEKTISKAKGQPREPQVYTLPPSRDELTKNQVSLTCLVKGFYPSDIAVEWESNGQPENNYKTTPPVLDSDGSFFLYSKLTVDKSRWQQGNVFSCSVLHEALHYHYTQKSLSLSP light: not shown"
6,0.056 µM,"IgG1-F195 (antibody, EU numbering; copies: 2 + 2) heavy: QVQLQESGPGLVKPSETLSLTCAVSGHSISHDHAWSWVRQPPGEGLEWIGFISYSGITNYNPSLQGRVTISRDNSKNTLYLQMNSLRAEDTAVYYCARSLARTTAMDYWGEGTLVTVSSASTKGPSVFPLAPSSKSTSGGTAALGCLVKDYFPEPVTVSWNSGALTSGVHTFPAVLQSSGLYSLSSVVTVPSSSLGTQTYICNVNHKPSNTKVDKKVEPKSCDKTHTCPPCPAPELLGGPSVFLFPPKPKDTLMISRTLEVTCVVVDVSHEDPEVKFNWYVDGVEVHNAKTKPREEQYNSTYRVVSVLQVLHQDWLNGKEYKCKVSNKALPAPIEKTISKAKGQPREPQVYTLPPSRDELTKNQVSLTCLVKGFYPSDIAVEWESNGQPENNYKTTPPVLDSDGSFFLYSKLTVDKSRWQQGNVFSCSVLHEALHYHYTQKSLSLSP light: not shown"
7,0.035 µM,"IgG1-F196 (antibody, EU numbering; copies: 2 + 2) heavy: QVQLQESGPGLVKPSETLSLTCAVSGHSISHDHAWSWVRQPPGEGLEWIGFISYSGITNYNPSLQGRVTISRDNSKNTLYLQMNSLRAEDTAVYYCARSLARTTAMDYWGEGTLVTVSSASTKGPSVFPLAPSSKSTSGGTAALGCLVKDYFPEPVTVSWNSGALTSGVHTFPAVLQSSGLYSLSSVVTVPSSSLGTQTYICNVNHKPSNTKVDKKVEPKSCDKTHTCPPCPAPELLGGPSVFLFPPKPKDTLMISRTAEVTCVVVDVSHEDPEVKFNWYVDGVEVHNAKTKPREEQYNSTYRVVSVLQVLHQDWLNGKEYKCKVSNKALPAPIEKTISKAKGQPREPQVYTLPPSRDELTKNQVSLTCLVKGFYPSDIAVEWESNGQPENNYKTTPPVLDSDGSFFLYSKLTVDKSRWQQGNVFSCSVLHEALHYHYTQKSLSLSP light: not shown"
